Results as given in publication PMC9297946.

Target: extracellular domain (25-250) of the human EPO receptor EPOR (human) (UniProt P19235)
Assay: SEC + other: RP-HPLC-MS of the isolated complex after dissociation; proteins mixed in solution under dilute conditions (about 0.3 mg EPOR per mL); gel filtration over an analytical Superdex 75 column; complex peak analysed by non-reducing SDS-PAGE, then dissociated with 0.2 % TFA (1 h) and analysed by RP-HPLC-MS for the ratio of the two proteins

Row | Substance | stoichiometry N
1 | EPO A (synthetic asialo glycoform of human erythropoietin 1-166 with three biantennary N-glycans terminating with galactose) (from UniProt P01588 28-193) (ligand) | 1 EPO:EPOR
2 | EPO S (synthetic sialylated glycoform of human erythropoietin 1-166 with three alpha-2,6-sialylated biantennary N-glycans) (from UniProt P01588 28-193) (ligand) | 1 EPO:EPOR
